Assay [1] concerns the target T1, glycoprotein gB of human cytomegalovirus (HCMV) AD169 strain (human cytomegalovirus, AD169 strain, UniProt P06473 32-906). The experiment in a line: cell-based or functional assay.
The target in assay [2] is T1, glycoprotein gB of human …. The assay is described as follows: cell-based or functional assay. This is another data set of the same source.
The target of assay [3] is glycoprotein gB of HCMV laboratory strain Towne (human cytomegalovirus, Towne strain, UniProt P13201 23-907). The experiment in a line: cell-based or functional assay.
glycoprotein gB of HCMV laboratory strain Towne, sequence (P13201 23-907 limits assumed): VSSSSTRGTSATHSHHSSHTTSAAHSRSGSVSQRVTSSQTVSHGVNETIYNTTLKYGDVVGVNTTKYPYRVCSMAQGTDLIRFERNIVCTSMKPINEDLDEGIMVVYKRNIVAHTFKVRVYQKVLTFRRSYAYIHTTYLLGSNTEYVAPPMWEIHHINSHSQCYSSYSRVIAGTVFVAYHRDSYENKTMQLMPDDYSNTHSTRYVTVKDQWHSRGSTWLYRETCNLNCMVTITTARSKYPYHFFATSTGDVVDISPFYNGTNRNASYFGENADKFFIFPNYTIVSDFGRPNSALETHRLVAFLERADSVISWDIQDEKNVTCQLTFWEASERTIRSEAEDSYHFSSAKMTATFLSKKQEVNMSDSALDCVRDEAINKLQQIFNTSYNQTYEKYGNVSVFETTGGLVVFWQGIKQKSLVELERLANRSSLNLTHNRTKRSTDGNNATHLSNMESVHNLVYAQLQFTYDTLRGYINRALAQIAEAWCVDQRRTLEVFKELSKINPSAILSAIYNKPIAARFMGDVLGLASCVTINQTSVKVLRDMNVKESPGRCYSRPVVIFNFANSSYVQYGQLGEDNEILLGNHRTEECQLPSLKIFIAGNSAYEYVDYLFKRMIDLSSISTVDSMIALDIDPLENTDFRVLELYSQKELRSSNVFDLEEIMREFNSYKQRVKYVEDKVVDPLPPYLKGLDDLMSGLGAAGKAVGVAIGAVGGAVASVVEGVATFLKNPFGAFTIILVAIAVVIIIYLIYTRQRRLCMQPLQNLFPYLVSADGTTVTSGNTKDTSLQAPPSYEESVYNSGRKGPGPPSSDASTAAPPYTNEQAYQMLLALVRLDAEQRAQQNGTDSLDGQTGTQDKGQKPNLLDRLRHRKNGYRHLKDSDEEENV
For assay [4], the target named is glycoprotein gB of HCMV laboratory strain Merlin (human cytomegalovirus, Merlin strain, UniProt F5HB53 25-907). The experiment in a line: cell-based or functional assay.
glycoprotein gB of HCMV laboratory strain Merlin, sequence (F5HB53 25-907 limits assumed): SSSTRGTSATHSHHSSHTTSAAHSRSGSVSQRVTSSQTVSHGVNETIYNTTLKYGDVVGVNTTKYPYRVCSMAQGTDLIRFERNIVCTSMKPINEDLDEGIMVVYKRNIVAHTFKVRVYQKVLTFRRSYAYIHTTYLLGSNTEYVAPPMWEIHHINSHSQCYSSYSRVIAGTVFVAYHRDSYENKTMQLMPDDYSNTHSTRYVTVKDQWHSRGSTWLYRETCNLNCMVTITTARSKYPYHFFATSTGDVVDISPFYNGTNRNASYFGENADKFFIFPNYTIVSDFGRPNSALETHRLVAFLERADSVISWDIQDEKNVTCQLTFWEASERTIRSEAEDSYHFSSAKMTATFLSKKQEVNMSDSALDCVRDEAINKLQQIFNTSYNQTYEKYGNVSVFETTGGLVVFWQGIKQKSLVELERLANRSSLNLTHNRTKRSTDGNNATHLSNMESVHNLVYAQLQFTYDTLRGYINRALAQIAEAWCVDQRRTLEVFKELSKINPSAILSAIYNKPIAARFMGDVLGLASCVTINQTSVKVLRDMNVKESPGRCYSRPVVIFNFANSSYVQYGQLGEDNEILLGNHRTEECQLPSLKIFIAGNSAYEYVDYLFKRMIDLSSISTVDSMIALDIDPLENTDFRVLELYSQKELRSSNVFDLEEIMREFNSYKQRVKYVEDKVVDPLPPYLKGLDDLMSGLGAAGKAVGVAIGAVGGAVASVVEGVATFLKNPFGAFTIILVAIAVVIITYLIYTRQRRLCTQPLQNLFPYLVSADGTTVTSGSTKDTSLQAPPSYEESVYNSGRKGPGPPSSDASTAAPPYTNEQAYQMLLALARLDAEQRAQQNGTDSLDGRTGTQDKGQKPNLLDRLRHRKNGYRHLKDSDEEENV
Assay [5] deals with glycoprotein gB of HCMV laboratory strain Davis (human cytomegalovirus, Davis strain). The assay is described as follows: cell-based or functional assay.
Assay [6] addresses glycoprotein gB of clinically isolated HCMV strain T-137 (human cytomegalovirus, clinical isolate …). The experiment in a line: cell-based or functional assay.
Assay [7] concerns the target glycoprotein gB of clinically isolated HCMV strain MDU-1 (human cytomegalovirus, clinical isolate …, UniProt P08195). The assay is described as follows: cell-based or functional assay.
In assay [8] the target is T2, synthetic gB peptide, Peptide 3 in Table 5 (human cytomegalovirus, AD169 strain, reading uncertain).
T2 construct: also called peptide number 3
T2 peptide: SCVTINQTSVKV-{cellulose membrane}
The experiment in a line: peptide array (SPOTs), dot blot.

The target in assay [9] is T3, synthetic gB peptide, Peptide 7 in Table 5 (human cytomegalovirus, AD169 strain, reading uncertain).
T3 construct: 12-mer of gB; also called peptide number 7
T3 peptide: NVKESPGRCYSR-{cellulose membrane}
The experiment in a line: peptide array (SPOTs), dot blot.

Assay [10] concerns the target T4, synthetic gB peptide, Peptide 8 in Table 5 (human cytomegalovirus, AD169 strain, reading uncertain).
T4 construct: 12-mer of gB; also called peptide number 8
T4 peptide: SPGRCYSRPVVI-{cellulose membrane}
The assay is described as follows: peptide array (SPOTs), dot blot.

The target of assay [11] is T5, synthetic gB peptide, Peptide 21 in Table 5 (human cytomegalovirus, AD169 strain, reading uncertain).
T5 construct: 12-mer of gB; also called peptide number 21
T5 peptide: GNSAYEYVDYLF-{cellulose membrane}
The experiment in a line: peptide array (SPOTs), dot blot.

The target in assay [12] is T6, synthetic gB peptide, Peptide 22 in Table 5 (human cytomegalovirus, AD169 strain, reading uncertain).
T6 construct: 12-mer of gB; also called peptide number 22
T6 peptide: YEYVDYLFKRMI-{cellulose membrane}
The assay is described as follows: peptide array (SPOTs), dot blot.

The target in assay [13] is T7, GST-fused HCMV-AD1 (AD1 region of HCMV glycoprotein gB) (human cytomegalovirus, AD169 strain, UniProt F5HB53 485-651).
T7 construct: also called solid-phased AD1; AD1 antigen; not shown: glutathione S-transferase (GST) fusion partner
T7 sequence (F5HB53 485-651): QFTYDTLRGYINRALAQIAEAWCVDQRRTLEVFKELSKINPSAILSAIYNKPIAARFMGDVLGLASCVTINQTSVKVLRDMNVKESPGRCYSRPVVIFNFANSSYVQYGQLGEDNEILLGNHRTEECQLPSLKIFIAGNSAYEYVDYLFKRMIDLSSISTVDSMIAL
The experiment in a line: ELISA on solid-phased AD1.

Assay [14] concerns the target T7, GST-fused HCMV-AD1 (AD1 region of HCMV …). The experiment in a line: ELISA on solid-phased AD1 (5 µg/mL). On the technique in general: ELISA stands for enzyme-linked immunosorbent assay.
For assay [15], the target named is T1, glycoprotein gB of human …. The experiment in a line: cell-based or functional assay. This is another data set of the same source.

Positions count from the first letter of the chain named. In names and notes the source's numbering stands. No end group written: not given here. cellulose membrane = not defined here

T1 sequence (P06473 32-906 limits assumed): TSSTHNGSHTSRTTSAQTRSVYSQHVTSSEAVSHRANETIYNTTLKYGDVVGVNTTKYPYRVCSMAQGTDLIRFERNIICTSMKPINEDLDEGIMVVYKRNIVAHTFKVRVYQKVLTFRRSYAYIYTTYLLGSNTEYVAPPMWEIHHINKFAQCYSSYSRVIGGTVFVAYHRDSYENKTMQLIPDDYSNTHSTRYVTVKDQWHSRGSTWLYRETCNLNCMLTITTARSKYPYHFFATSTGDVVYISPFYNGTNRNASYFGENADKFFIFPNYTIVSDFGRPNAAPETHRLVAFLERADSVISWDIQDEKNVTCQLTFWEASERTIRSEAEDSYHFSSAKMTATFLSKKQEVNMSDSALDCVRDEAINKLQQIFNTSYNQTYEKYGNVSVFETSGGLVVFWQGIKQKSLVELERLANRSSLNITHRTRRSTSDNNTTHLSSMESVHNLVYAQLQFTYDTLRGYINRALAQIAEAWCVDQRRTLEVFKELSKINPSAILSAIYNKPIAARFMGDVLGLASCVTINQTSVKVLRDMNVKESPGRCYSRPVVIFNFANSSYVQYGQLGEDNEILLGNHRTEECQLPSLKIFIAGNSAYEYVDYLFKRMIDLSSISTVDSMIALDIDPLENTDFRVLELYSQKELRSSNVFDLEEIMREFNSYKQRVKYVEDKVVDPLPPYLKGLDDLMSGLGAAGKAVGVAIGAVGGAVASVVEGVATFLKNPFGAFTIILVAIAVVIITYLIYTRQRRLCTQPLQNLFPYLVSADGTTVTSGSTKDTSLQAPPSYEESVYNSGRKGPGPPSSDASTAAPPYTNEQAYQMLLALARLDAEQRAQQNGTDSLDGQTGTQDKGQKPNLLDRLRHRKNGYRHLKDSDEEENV
glycoprotein gB of clinically isolated HCMV strain MDU-1, sequence (P08195 102-630): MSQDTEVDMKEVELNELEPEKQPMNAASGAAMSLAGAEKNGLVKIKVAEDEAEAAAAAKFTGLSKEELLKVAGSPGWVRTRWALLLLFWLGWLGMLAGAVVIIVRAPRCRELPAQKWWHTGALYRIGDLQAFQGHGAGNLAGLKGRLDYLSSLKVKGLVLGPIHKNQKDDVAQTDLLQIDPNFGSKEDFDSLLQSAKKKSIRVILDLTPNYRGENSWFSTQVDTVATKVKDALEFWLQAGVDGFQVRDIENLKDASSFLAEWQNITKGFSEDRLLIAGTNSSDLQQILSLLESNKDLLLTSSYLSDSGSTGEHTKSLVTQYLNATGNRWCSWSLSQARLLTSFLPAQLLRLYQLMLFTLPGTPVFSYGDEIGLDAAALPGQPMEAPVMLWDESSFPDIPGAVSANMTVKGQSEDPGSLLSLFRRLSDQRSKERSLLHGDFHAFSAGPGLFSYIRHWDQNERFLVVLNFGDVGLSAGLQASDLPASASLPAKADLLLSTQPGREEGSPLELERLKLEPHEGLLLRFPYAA

B1: anti-AD1 antibody EV2038 (antibody, human IgG1, lambda, V domains shown)
VH: QVQLQQWGAGLLKPSETLSLTCAVYGGSFSGYYWGWIRQPPGKGLEWIGEINHSGSANSNPSLKSRVTMSVDTSKNQFSLKVSSVTAADTAVYFCARVTRDLEWIPGDYYMDVWGKGTTVTVSS
VL: QSVLTQPPSASGTPGQRVSISCSGSLSNIGTNYVYWYQQLPGTAPKLLIFKNNQRPSGVPDRFSGSKSGTSASLAISGLRSEDEADYYCAAWDDSLNGYVFGTGTKVTVLG
notes: complete human IgG1λ; also called EV2038 (original); anti-HCMV antibody (EV2038)
Take B1: in assay [1], the “IC50 of neutralisation of HCMV AD169 infection of MRC-5 cells (IE1 immunostaining), with complement (Cp+)” value worked out at 0.58 mg/L and the “IC50 of neutralisation of HCMV AD169 infection of MRC-5 cells (IE1 immunostaining), without complement (Cp-)” value is 0.57 mg/L. In [2], the “IC50 of plaque formation, HCMV AD169, fibroblast cell” value is 0.027 mg/L and the “IC50 of plaque formation, HCMV AD169, fibroblast cell (mol concentration)” value was 0.18 nM. Moreover, in assay [3], the “IC50 of plaque formation, HCMV Towne, fibroblast cell” value was 0.025 mg/L and the “IC50 of plaque formation, HCMV Towne, fibroblast cell (mol concentration)” value is 0.17 nM. In assay [4], the “IC50 of plaque formation, HCMV Merlin, fibroblast cell” value is 0.012 mg/L and the “IC50 of plaque formation, HCMV Merlin, fibroblast cell (mol concentration)” value was 0.08 nM. In assay [5], the “IC50 of plaque formation, HCMV Davis, fibroblast cell” value stood at 0.037 mg/L and the “IC50 of plaque formation, HCMV Davis, fibroblast cell (mol concentration)” value worked out at 0.25 nM. In addition, in [6], the “IC50 of plaque formation, clinical isolate T-137, fibroblast cell” value is 0.07 mg/L and the “IC50 of plaque formation, clinical isolate T-137, fibroblast cell (mol concentration)” value was found to be 0.47 nM. Further, in assay [7], the “IC50 of plaque formation, clinical isolate MDU-1, epithelial cell” value amounted to 0.04 mg/L; the “IC50 of plaque formation, clinical isolate MDU-1, fibroblast cell” value is 0.044 mg/L; the “IC50 of plaque formation, clinical isolate MDU-1, fibroblast cell (mol concentration)” value is 0.29 nM. Besides, the binding result in assay [8] is on record as “binds”. The binding result in [9] is “binds”. The binding result in assay [10] was “binds”. Moreover, in assay [11], the binding result is listed as “binds”. The binding result in assay [12] was “binds”.

B2: EV2038 CDR-H3 deletion variant E122del (antibody, V domains shown)
VH: QVQLQQWGAGLLKPSETLSLTCAVYGGSFSGYYWGWIRQPPGKGLEWIGEINHSGSANSNPSLKSRVTMSVDTSKNQFSLKVSSVTAADTAVYFCARVTRDLWIPGDYYMDVWGKGTTVTVSS
VL: B1 VL
notes: original EV2038 L-chain
With B2, the binding result in assay [13] was “no binding”.

B3: EV2038 CDR-H3 insertion variant G126_D127insE (antibody, V domains shown)
VH: QVQLQQWGAGLLKPSETLSLTCAVYGGSFSGYYWGWIRQPPGKGLEWIGEINHSGSANSNPSLKSRVTMSVDTSKNQFSLKVSSVTAADTAVYFCARVTRDLEWIPGEDYYMDVWGKGTTVTVSS
VL: B1 VL
notes: original EV2038 L-chain
B3: the binding result in assay [13] was “no binding”.

B4: EV2038 CDR-H3 variant P125K (antibody, V domains shown)
VH: B1 VH with P106K
VL: B1 VL
notes: original EV2038 L-chain
For the molecule B4, the binding result in assay [14] was “no binding (tested: 1 µg/mL, dilution series)”.

B5: EV2038 CDR-H3 variant P125G (antibody, V domains shown)
VH: B1 VH with P106G
VL: B1 VL
notes: original EV2038 L-chain
With B5, the binding result in [14] is “no binding (tested: 1 µg/mL, dilution series)”.

B6: EV2038 CDR-H3 variant P125D (antibody, V domains shown)
VH: B1 VH with P106D
VL: B1 VL
notes: original EV2038 L-chain
For B6, the binding result in assay [14] was “no binding (tested: 1 µg/mL, dilution series)”.

B7: EV2038 CDR-H3 variant P125E (antibody, V domains shown)
VH: B1 VH with P106E
VL: B1 VL
notes: original EV2038 L-chain
As for B7, the binding result in assay [14] is given as “no binding (tested: 1 µg/mL, dilution series)”.

B8: EV2038 CDR-H3 variant P125C (antibody, V domains shown)
VH: B1 VH with P106C
VL: B1 VL
notes: original EV2038 L-chain
For the molecule B8, in [14], the binding result was “no binding (tested: 1 µg/mL, dilution series)”.

B9: EV2038 CDR-H3 variant P125H (antibody, V domains shown)
VH: B1 VH with P106H
VL: B1 VL
notes: original EV2038 L-chain
Take B9: in assay [14], the binding result is reported as “no binding (tested: 1 µg/mL, dilution series)”.

B10: EV2038 CDR-H3 variant P125T (antibody, V domains shown)
VH: B1 VH with P106T
VL: B1 VL
notes: original EV2038 L-chain
Consider B10, for which, in [14], the binding result is “no binding (tested: 1 µg/mL, dilution series)”.

B11: EV2038 CDR-H3 variant P125W (antibody, V domains shown)
VH: B1 VH with P106W
VL: B1 VL
notes: original EV2038 L-chain
As to B11, in assay [14], the binding result is “no binding (tested: 1 µg/mL, dilution series)”.

B12: EV2038 CDR-H3 variant P125Q (antibody, V domains shown)
VH: B1 VH with P106Q
VL: B1 VL
notes: original EV2038 L-chain
In the case of B12, the binding result in assay [14] is given as “no binding (tested: 1 µg/mL, dilution series)”.

B13: EV2038 CDR-H3 variant P125M (antibody, V domains shown)
VH: B1 VH with P106M
VL: B1 VL
notes: original EV2038 L-chain
B13: the binding result in assay [14] is “no binding (tested: 1 µg/mL, dilution series)”.

B14: EV2038 CDR-H3 variant P125N (antibody, V domains shown)
VH: B1 VH with P106N
VL: B1 VL
notes: original EV2038 L-chain
On to B14, for which, in [14], the binding result is “no binding (tested: 1 µg/mL, dilution series)”.

B15: EV2038 CDR-H3 variant I124V (antibody, V domains shown)
VH: B1 VH with I105V
VL: B1 VL
As for B15, the “50% inhibition concentration (IC50) of HCMV infection (immunostaining method of Abai et al.)” value in assay [15] was found to be 0.45 mg/L.

B16: EV2038 CDR-H3 variant I124D (antibody, V domains shown)
VH: B1 VH with I105D
VL: B1 VL
notes: original EV2038 L-chain
B16: in [13], the binding result is on record as “no binding”.

B17: EV2038 CDR-H3 variant P125L (antibody, V domains shown)
VH: B1 VH with P106L
VL: B1 VL
notes: original EV2038 L-chain
B17: in assay [14], the binding result is “no binding (tested: 1 µg/mL, dilution series)”.

B18: EV2038 CDR-H3 variant P125S (antibody, V domains shown)
VH: B1 VH with P106S
VL: B1 VL
notes: original EV2038 L-chain
Consider B18, for which, in assay [14], the binding result was “no binding (tested: 1 µg/mL, dilution series)”.

B19: EV2038 CDR-H3 variant P125R (antibody, V domains shown)
VH: B1 VH with P106R
VL: B1 VL
notes: original EV2038 L-chain
Regarding B19, the binding result in assay [14] is on record as “no binding (tested: 1 µg/mL, dilution series)”.

B20: EV2038 CDR-H3 variant P125Y (antibody, V domains shown)
VH: B1 VH with P106Y
VL: B1 VL
notes: original EV2038 L-chain
Take B20: the binding result in [14] is recorded as “no binding (tested: 1 µg/mL, dilution series)”.

B21: EV2038 CDR-H3 variant P125I (antibody, V domains shown)
VH: B1 VH with P106I
VL: B1 VL
notes: original EV2038 L-chain
For B21, in [14], the binding result is “no binding (tested: 1 µg/mL, dilution series)”.

B22: EV2038 CDR-H3 variant P125A (antibody, V domains shown)
VH: B1 VH with P106A
VL: B1 VL
notes: original EV2038 L-chain
B22: the binding result in [14] is on record as “no binding (tested: 1 µg/mL, dilution series)”.

B23: EV2038 CDR-H3 variant V132K (antibody, V domains shown)
VH: B1 VH with V113K
VL: B1 VL
With B23, the “50% inhibition concentration (IC50) of HCMV infection (immunostaining method of Abai et al.)” value in assay [15] was found to be 1.2 mg/L.

B24: EV2038 CDR-H3 variant P125V (antibody, V domains shown)
VH: B1 VH with P106V
VL: B1 VL
notes: original EV2038 L-chain
In the case of B24, the binding result in assay [14] is “no binding (tested: 1 µg/mL, dilution series)”.

B25: EV2038 CDR-H3 variant P125F (antibody, V domains shown)
VH: B1 VH with P106F
VL: B1 VL
notes: original EV2038 L-chain
Turning to B25, in [14], the binding result is reported as “no binding (tested: 1 µg/mL, dilution series)”.

The values above are taken from patent publication US20120093810A1 (EVEC, published 2012).
